B1: PNUTS(1-148), PNUTS amino-terminal domain (PAD) (domain or fragment)
chain: MGSGPIDPKELLKGLDSFLNRDGEVKSVDGISKIFSLMKEARKMVSRCTYLNILLQTRSPEILVKFIDVGGYKLLNNWLTYSKTTNNIPLLQQILLTLQHLPLTVDHLKQNNTAKLVKQLSKSSEDEELRKLASVLVSDWMAVIRSQS

Among the targets are MYC(1-88 Q20A); MYC(1-88 V19A); MYC(1-88)-V19A; MYC(1-88)-Q20A.
Common to all, as to test: BLI
The target of assay [1] is B1.

A word on the Kd: it is the concentration at which binding is half-saturated. For the molecule B1, the Kd is 5.3 µM with MYC(1-88 Q20A), 8.4 µM in the assay with MYC(1-88 V19A), 8.4 µM with MYC(1-88)-V19A and 5.3 µM with MYC(1-88)-Q20A.

B2: biotinylated MYC(1-88 F23A) (domain or fragment)
chain: MPLNVSFTNRNYDLDYDSVQPYAYCDEEENFYQQQQQSELQPPAPSEDIWKKFELLPTPPLSPSRRSGLCSPSYVAVTPFSLRGDNDG
modifications: biotin on the C-terminal AVI tag
For the molecule B2, the Kd in assay [1] turned out to be 19 µM.

B3: biotinylated MYC(1-88 Y24A) (domain or fragment)
chain: MPLNVSFTNRNYDLDYDSVQPYFACDEEENFYQQQQQSELQPPAPSEDIWKKFELLPTPPLSPSRRSGLCSPSYVAVTPFSLRGDNDG
modifications: biotin on the C-terminal AVI tag
Consider B3, for which binding in assay [1] was put at a Kd of 37 µM.

B4: biotinylated MYC(1-88 Y22A) (domain or fragment)
chain: MPLNVSFTNRNYDLDYDSVQPAFYCDEEENFYQQQQQSELQPPAPSEDIWKKFELLPTPPLSPSRRSGLCSPSYVAVTPFSLRGDNDG
modifications: biotin on the C-terminal AVI tag
For B4, binding in assay [1] was put at a Kd of 24 µM.

B5: biotinylated MYC(1-88 P21A) (domain or fragment)
chain: MPLNVSFTNRNYDLDYDSVQAYFYCDEEENFYQQQQQSELQPPAPSEDIWKKFELLPTPPLSPSRRSGLCSPSYVAVTPFSLRGDNDG
modifications: biotin on the C-terminal AVI tag
For B5, the Kd in assay [1] came to 19 µM.

The values above are taken from publication doi:10.1101/2021.12.02.470928 (2021).
